{
  "source": "paper PMC11380581",
  "about": "(Cell, 2024)",
  "molecules": {"B1": {"name": "NRC4 L9E D478V (NLR Required for Cell Death 4 with the L9E and D478V mutations) (natural protein, N. benthamiana)", "chain": "MADAVVNFEVENLLQLLTDNVKLIGSAKGELENLLKEVQHLKGFLDDAAKLPSDSEQWKVLVEEIQKTVHTAEDAVDKFVVQAKLHKEKNKMARILDVGHLATVRNLAAEVKGIHDQVKELRLNNQALQARPTLELPKKGSSETTQQGPALEDDEVVGFDEEANKVINRLVKESKDLDIIPVVGMPGLGKTTLARKIYKDPKLSYEFFGVHWVYVGQSYKIKDVFLNILKFFTRRTEDYQHEDVDALAKVIAGFINKGGRCLICLDDVWETKVIDYVKTIFPENEKGHRVMMTTRNKVLATYANSDPHDLKFLTPKESFELLVKRVFGKKPCPKDLVGHGESIAGKCGGVPLAVVVIAGALRGRPNTSDWIRVERNVVQHLYTNSEESCLKFVEMSYDHLPQEVQTCFLYCGVFPRGFDIPSWKVIRLWIAEGLIKPQESYTLEEIAEFYLNDLVNRNLVILQQKRSDGQIKTCRLHVMLHQFCKKEASNKWLFQEVSLTPDQAIPIEDPNKSRRLCIQPSNLKDFLSKKPSAEHVRSFYCFSSKEKQIRGLTPNDIKLIHKAFPLVRVLDVESLKFLFSKDFNQLFHLRYIAISGDFNAIPLTFGKFWNLQTLILNTSTSESTLDVKADIWNMLQLRHLHTNIPAKLQPPTATTSGKASCLQTLCMVAPESCEKEVLAKACHLKKLSIRGQMAAFLGAYKGGINNLVELKCLEQLKLLNDVLYMNKAPHLPQTFSQLVRTVKKLTLTNTRFAWSEADKLGQLESLEILKFKENAFAGDSWKPKMGFSALRVLWIERAEFETWEASEINFPVLRNLVLMSCDKLETVPFELANLSDLYEMRLENTSKAVKSAKAILESKTDKNIKFNLTIFPPEAGSKATQ"}, "B2": {"name": "wild type NRC4, Flag-tagged (natural protein, N. benthamiana)", "chain": "B1 chain with E9L, V478D"}, "B3": {"name": "NRC4 L9E (natural protein, N. benthamiana)", "chain": "B1 chain with V478D"}, "B4": {"name": "NRC0-EEE-3XFlag (active NRC0) (natural protein)", "chain": "MADAVVEFELLNEKQLELYHVDLLSGVKDEVESLHRELSLMKAFLKDSREKRSEYEYVRELVSQITIVAYEAEDIIDTFVTNAAMQKARSTVRRAFHVFDHSSKLRNVAKEIESIKVKVKEIYDKKMFGIQSLHGGESSHRSPPQKRVPMVEEENVVGFDDEARKISSRLTNGSEELEIISIVGMGGLGKTTLAKKVYTDSSIEFHFYNRAWIYVSQLYSRKEVFLGILDSLSLITDEMYKMNDEKLAGELFSHLRSKRYLVVIDDVWTMEAWDDLQMAFPKTATGSRILLTTRNTEVALHANPEGLPHHLRFLTHEESWELLSKKVFRKGICPLELEDIGLQIAKKCYGLPLAIVVVSGLLLKKEKTRDWWKKIANDVSSYVARDPKQCMDVLALSYKHLPDHLKVCFIYFGVFPEDFEIPVWKLLRLWTSEGFVQKMGQECLEDTAEEYLEDLVDRNLVLVAKKRASGRIKTCRIHDMLRDLSVKMGSEEKFLEVFKESAQNHSLSPISKYHRRLCVHSHFLDFITSRPFGPNVRSFLCFASEEMELLREHTSFLHEAFRLVRVLDLKYINFPRFPTEIVQLVHLRYIALSGNFRVLPASISKLWNLETLIVGTKSRELDIQVDIWKMSQFKHLYTSGLSCLRGPPAKTRKDNADPFVRRNIQTISTVLPDCCKENILARTPGLRKLGIRGKLATLVATNGDSSLFDNLAKLDNLETLKLLNDTFPLPPSQCQIPGLPQSYKFPPNLKKLTLSDTFLDWSHISTLGMLPNLEVLKLKDYAFKGTQWEPLDGGFRLLRVLHIGRTNLEHWNASGHHFPRLQQVFLKHCSSLNEIPFGLVEVSSLQNIELFWPTPAAAASARIIQQEKQEGDIKDNVFKLVIYPPDI"}},
  "key": {"[1]": {"target": "Flag-tagged NRC4 co-expressed with HA-tagged Bs2 and AvrBs2 (Figure S6F) (N. benthamiana)", "assay": "native gel or EMSA"}, "[2]": {"target": "NRC3-L21E-3xFlag (active NRC3)", "assay": "negative-stain EM"}, "cryo-EM structure [3]": {"target": "the molecule itself", "assay": "cryo-EM structure"}, "cryo-EM structure [4]": {"target": "the molecule itself", "assay": "cryo-EM structure", "remark": "listed apart in the source"}, "[5]": {"target": "the molecule itself", "assay": "native gel or EMSA + other: negative-stain EM"}, "negative-stain EM": {"target": "the molecule itself", "assay": "negative-stain EM"}},
  "note": "Where a chain is given by its changes, count along the chain named. Names may count otherwise.",
  "data": [
    {"molecule": "Flag-tagged NRC4 co-expressed with HA-tagged Bs2 and AvrBs2 (Figure S6F) (from UniProt A0A5J6DCT7 1-881) (natural protein)", "values": [
      {"measurement": "stoichiometry N", "setting": "[1]", "result": 6}
    ]},
    {"molecule": "NRC3-L21E-3xFlag (active NRC3) (natural protein)", "values": [
      {"measurement": "stoichiometry N", "setting": "[2]", "result": 6}
    ]},
    {"molecule": "B1", "values": [
      {"measurement": "stoichiometry N", "setting": "cryo-EM structure [3]", "result": 12},
      {"measurement": "stoichiometry N", "setting": "cryo-EM structure [4]", "result": 6}
    ]},
    {"molecule": "B2", "values": [
      {"measurement": "stoichiometry N", "setting": "[5]", "result": 2}
    ]},
    {"molecule": "B3", "values": [
      {"measurement": "stoichiometry N", "setting": "negative-stain EM", "result": 6}
    ]},
    {"molecule": "B4", "values": [
      {"measurement": "stoichiometry N", "setting": "negative-stain EM", "result": 6}
    ]}
  ]
}
